# Measured values taken from the supplement of paper PMC10567573.
# B1: STX5 (parent)
# chain: RSEFTLMAKRIGKDLSNTFAKLEK
# Variants of: B1
# Test: protein stability index of a GFP-peptide fusion (GPS, HEK-293T) (PSI 1-6); higher = more stable
# Conditions: c terminus: a fixed tail appended
# 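Note: lentivirally expressed fusions sorted by FACS into six bins by GFP to DsRed ratio, PSI derived from sequencing read proportions per bin multiplied by bin number.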
row,Variant,protein stability index
1,RSEFTLMAKRIHKDLSNTFAKLEK [G12H],2.87
2,RSEFTLMAKRISKDLSNTFAKLEK [G12S],3.15
3,RSEFTLMAKRIMKDLSNTFAKLEK [G12M],2.58
4,RSEFTLMAKRIKKDLSNTFAKLEK [G12K],2.79
5,RSEFTLMAKRIEKDLSNTFAKLEK [G12E],2.42
6,RSEFTLMAKRICKDLSNTFAKLEK [G12C],2.2
7,RSEFTLMAKRIPKDLSNTFAKLEK [G12P],3.81
8,RSEFTLMAKRIVKDLSNTFAKLEK [G12V],1.54
9,RSEFTLMAKRIRKDLSNTFAKLEK [G12R],2.16
10,RSEFTLMAKRIQKDLSNTFAKLEK [G12Q],1.69
11,RSEFTLMAKRILKDLSNTFAKLEK [G12L],3.53
12,RSEFTLMAKRIFKDLSNTFAKLEK [G12F],2.15
13,RSEFTLMAKRIDKDLSNTFAKLEK [G12D],2.9
14,RSEFTLMAKRINKDLSNTFAKLEK [G12N],1.81
15,RSEFTLMAKRIGKDASNTFAKLEK [L15A],2.59
16,RSEFTLMAKRIGPDLSNTFAKLEK [K13P],2.54
17,RSEFTLMAKRIGNDLSNTFAKLEK [K13N],2.06
18,RSEFTLMAKRIGRDLSNTFAKLEK [K13R],2.33
19,RSEFTLMAKRIGADLSNTFAKLEK [K13A],1.49
20,RSEFTLMAKRIGEDLSNTFAKLEK [K13E],2.34
21,RSEFTLMAKRIGSDLSNTFAKLEK [K13S],2.55
22,RSEFTLMAKRIGQDLSNTFAKLEK [K13Q],2.35
23,RSEFTLMAKRIGCDLSNTFAKLEK [K13C],2.46
24,RSEFTLMAKRIGMDLSNTFAKLEK [K13M],1.07

row,Variant,protein stability index
1,RSEFTLMAKRIGGDLSNTFAKLEK [K13G],2.84
2,RSEFTLMAKRIGFDLSNTFAKLEK [K13F],3.26
3,RSEFTLMAKRIGVDLSNTFAKLEK [K13V],2.1
4,RSEFTLMAKRIGDDLSNTFAKLEK [K13D],3.34
5,RSEFTLMAKRIGTDLSNTFAKLEK [K13T],1.46
6,RSEFTLMAKRIGLDLSNTFAKLEK [K13L],2.83
7,RSEFTLMATRIGKDLSNTFAKLEK [K9T],2.06
8,RSEFTLMARRIGKDLSNTFAKLEK [K9R],2.04
9,RSEFTLMAWRIGKDLSNTFAKLEK [K9W],1.97
10,RSEFTLMAYRIGKDLSNTFAKLEK [K9Y],2.99
11,RSEFTLMASRIGKDLSNTFAKLEK [K9S],2.87
12,RSEFTLMALRIGKDLSNTFAKLEK [K9L],1.88
13,RSEFTLMAPRIGKDLSNTFAKLEK [K9P],2.94
14,RSEFTLMAQRIGKDLSNTFAKLEK [K9Q],2.54
15,RSEFTLMAIRIGKDLSNTFAKLEK [K9I],1.82
16,RSEFTLMANRIGKDLSNTFAKLEK [K9N],2.63
17,RSEFTLMAVRIGKDLSNTFAKLEK [K9V],2.17
18,RSEFTLMAMRIGKDLSNTFAKLEK [K9M],1.92
19,RSEFTLMAKRIGKSLSNTFAKLEK [D14S],2.13
20,RSEFTLMAKRIGKGLSNTFAKLEK [D14G],3.97
21,RSEFTLMAKRIGKPLSNTFAKLEK [D14P],2.49
22,RSEFTLMAKRIGKCLSNTFAKLEK [D14C],2.71
23,RSEFTLMAKRIGKTLSNTFAKLEK [D14T],4.17
24,RSEFTLMAKRIGKQLSNTFAKLEK [D14Q],4.98

row,Variant,protein stability index
1,RSEFTLMAKRIGKLLSNTFAKLEK [D14L],2.61
2,RSEFTLMAKRIGKALSNTFAKLEK [D14A],4.25
3,RSEFTLMAKRIGKMLSNTFAKLEK [D14M],2.59
4,RSEFTLMAKRIGKILSNTFAKLEK [D14I],4.05
5,RSEFTLMAKRIGKYLSNTFAKLEK [D14Y],2.65
6,RSEFTLMAKRIGKVLSNTFAKLEK [D14V],2.64
7,RSEFTLMAKRIGKELSNTFAKLEK [D14E],4.59
8,RSEFTLMAKRIGKKLSNTFAKLEK [D14K],3.03
9,RSEFTLMAKRWGKDLSNTFAKLEK [I11W],1.18
10,RSEFTLMAKREGKDLSNTFAKLEK [I11E],3.9
11,RSEFTLMAKRHGKDLSNTFAKLEK [I11H],3.46
12,RSEFTLMAKRQGKDLSNTFAKLEK [I11Q],3.33
13,RSEFTLMAKRCGKDLSNTFAKLEK [I11C],2.06
14,RSEFTLMAKRNGKDLSNTFAKLEK [I11N],4.29
15,RSEFTLMAKRMGKDLSNTFAKLEK [I11M],1.65
16,RSEFTLMAKRVGKDLSNTFAKLEK [I11V],1.16
17,RSEFTLMAKRFGKDLSNTFAKLEK [I11F],3.65
18,RSEFTLMAKRGGKDLSNTFAKLEK [I11G],3.41
19,RSEFTLMAKRRGKDLSNTFAKLEK [I11R],3.81
20,RSEFTLMAKRTGKDLSNTFAKLEK [I11T],3.13
21,RSEFTLMAKRDGKDLSNTFAKLEK [I11D],3.84
22,RSEFTLMAKRYGKDLSNTFAKLEK [I11Y],2.14
23,RSEFTLMAKRAGKDLSNTFAKLEK [I11A],2.77
24,RSEFTLMAKRKGKDLSNTFAKLEK [I11K],2.93

row,Variant,protein stability index
1,RSEFTLMAKRPGKDLSNTFAKLEK [I11P],3.52
2,RSEFTLMAKRSGKDLSNTFAKLEK [I11S],3.87
3,RSEFTLMAKRLGKDLSNTFAKLEK [I11L],1.57
4,RSEFTLMAKKIGKDLSNTFAKLEK [R10K],3.31
5,RSEFTLMAKTIGKDLSNTFAKLEK [R10T],1.99
6,RSEFTLMAKLIGKDLSNTFAKLEK [R10L],2.73
7,RSEFTLMAKAIGKDLSNTFAKLEK [R10A],2.85
8,RSEFTLMAKEIGKDLSNTFAKLEK [R10E],2.94
9,RSEFTLMAKDIGKDLSNTFAKLEK [R10D],3.12
10,RSEFTLMAKNIGKDLSNTFAKLEK [R10N],2.36
11,RSEFTLMAKHIGKDLSNTFAKLEK [R10H],2.01
12,RSEFTLMAKMIGKDLSNTFAKLEK [R10M],1.99
13,RSEFTLMAKYIGKDLSNTFAKLEK [R10Y],1.28
14,RSEFTLMAKPIGKDLSNTFAKLEK [R10P],4.03
15,RSEFTLMAKSIGKDLSNTFAKLEK [R10S],2.11
16,RSEFTLMAKVIGKDLSNTFAKLEK [R10V],1.09
17,RSEFTLMAKIIGKDLSNTFAKLEK [R10I],1.95
18,RSEFTLMAKCIGKDLSNTFAKLEK [R10C],2.66
19,RSEFTLMAKQIGKDLSNTFAKLEK [R10Q],1.05
20,RSEFTLMAKFIGKDLSNTFAKLEK [R10F],2.29
21,RSEFTLMAKGIGKDLSNTFAKLEK [R10G],2.35
22,RSEFTLMAKWIGKDLSNTFAKLEK [R10W],2.02
